{
  "source": "patent US20180094051A1",
  "about": "“METHOD FOR INHIBITING LYMPHANGIOGENESIS BY ADMINISTRATION OF AN INHIBITOR OF THE CXCL12 PATHWAY” (Tsinghua University, priority 2012, published 2018)",
  "key": {"[1]": {"system": "mouse lymphatic endothelial cells", "test": "Cell chemotaxis assay (Transwell)", "type": "cell-based", "settings": "agent in outer chamber (CXCL12 1, 20, 100 ng/mL; VEGF-C 100 ng/mL), 6 hours", "method": "The migration ability of mouse lymphatic endothelial cells was assessed using 8-μm-pore Transwell bucket (filter membrane) (purchased from Costar). The transwell bucket was placed into a 24-well plate. Mouse primary lymphatic endothelial cells (mLECs) at passage 2 or 3 in good conditions were selected, and divided into five groups, four parallel samples for each group and approximately 2×10^4 cells for each parallel sample. The cells were digested with trypsin, resuspended in 200 μL of fresh serum-free endothelial cell culture medium (ECM, purchased from Sciencell), and then seeded into the inner chambers of the Transwell bucket. To each outer chamber was added 800 μL of serum-free endothelial cell culture medium mixed with 1 ng/mL, 20 ng/mL, 100 ng/mL of chemokine CXCL12 (purchased from R&D Systems), 100 ng/mL of VEGF-C (purchased from R&D Systems) and PBS control, respectively. The culture plate was placed into an incubator and incubated under 5% CO2 at 37° C. for 6 hours.\nAfter taking out the culture plate, the Transwell bucket was fixed in 4% paraformaldehyde solution for 15 minutes. The Transwell bucket was rinsed twice in PBS, stained with 0.1% crystal violet solution for 30 minutes, and then washed with PBS to remove the non-specifically bound crystal violet. The cells inside Transwell membrane were wiped off gently with medical cotton swabs. Note that the cells on the edge of the membrane should also be wiped off to avoid affecting cell counting. The Transwell bucket was placed under a microscope (Olympus IX71 microscope), and the cells migrated from the outer membrane were observed by microscopy. 8 fields per group were photographed randomly to count the cells.\nThe migration ability of mouse lymphatic endothelial cells was assessed using 8-μm-pore Transwell bucket (purchased from Costar). The bucket was placed into a 24-well plate. Mouse primary lymphatic endothelial cells (mLECs) at passage 2 or 3 in good conditions were selected, and divided into six groups, four parallel samples for each group, and approximately 2×10^4 cells for each parallel sample. The cells were digested with trypsin and resuspended in 200 μL, of fresh serum-free endothelial cell culture medium (ECM, purchased from Sciencell). The cells were pretreated for 30 minutes with dimethyl sulfoxide (DMSO) as a control, protein kinase B (Akt) antagonist LY294002 (10 μM, purchased from Sigma-Aldrich) and extracellular signal-regulated kinase (Erk) antagonist U0126 (10 μM, purchased from Sigma-Aldrich), respectively, and then seeded into the inner chambers of the Transwell bucket. […] The cells were stained and the number of the migrated cells was counted.\nThe migration ability of mouse lymphatic endothelial cells was detected by using 8-μm-pore Transwell bucket (purchased from Costar). […]"}, "chemokine receptor CXCR4": {"system": "chemokine receptor CXCR4", "test": "Immunoblotting of CXCR4 in lymphatic endothelial cells (incl. HIF-1α RNA interference)", "type": "cell-based", "settings": "mouse lymphatic endothelial cells, 100 ng/mL VEGF-C, 6, 12 and 24 hours", "method": "Mouse primary lymphatic endothelial cells at passage 2 or 3 in good condition were selected, and starved overnight by replacing the culture medium with a fresh medium free of serum and growth factors. Then the medium was replaced with a medium containing 100 ng/mL of VEGF-C. The cells were incubated for 6, 12 and 24 hours, respectively, and then trypsinized and collected by centrifugation for detecting the expression level of chemokine receptor CXCR4 in the cells by immunoblotting.\nThe samples were subjected to SDS-PAGE (the concentration of separation gel was 15%). Protein bands were transferred to polyvinylidene difluoride (PVDF) membrane (purchased from Millipore) at 100 mA for 3 hours using an electroblotting device in ice bath. TBST buffer (20 mM Tris, pH7.4, 150 mM NaCl, 0.1% Tween-20) was formulated for preparing blocking solution, primary antibody solution and secondary antibody solution. The PVDF membrane was further incubated in blocking solution containing 5% skim milk for 1 hour at room temperature with gentle shaking. The membrane was then washed with TBST for 5 times, 5 minutes each. […]\nThe siRNA for interfering with the chemical synthesis of HIF-1α was purchased from Santa Cruz Biotechnology, and the negative control siRNA was purchased from GenePharma, Shanghai. […] HIF-1α knock-down efficiency was detected by immunoblotting. […]"}},
  "data": [
    {"molecule": "VEGF-C: Vascular Endothelial Growth Factor C, the major pro-lymphangiogenesis factor; purchased from R&D Systems (protein, UniProt P49767 112-227, looked up) Vascular endothelial growth …: AHYNTEILKSIDNEWRKTQCMPREVCIDVGKEFGVATNTFFKPPCVSVYRCGGCCNSEGLQCMNTSTSYLSKTLFEITVPLSQGPKPVTISFANHTSCRCMSKLDVYRQVHSIIRR", "values": [
      {"measurement": "migration of mouse lymphatic endothelial cells", "setting": "[1]", "value": "could promote the migration of mouse lymphatic endothelial cells"},
      {"measurement": "expression level of CXCR4", "setting": "chemokine receptor CXCR4", "value": "could up-regulate the expression of CXCR4 and HIF-1α"}
    ]}
  ]
}
